# Measurements reported in the supplement of paper PMC9112550, “Optimization of the antimicrobial peptide Bac7 by deep mutational scanning” (BMC Biology, 2022).
# Test system: Escherichia coli TOP10
# Assay: shrunken log2 fold change of peptide-encoding DNA abundance (4.5 h post-induction vs induction); higher = less antimicrobial activity (less host growth inhibition)
# Conditions: time post-induction: 4.5 h; library: site-saturation at positions 5, 18, 19, 20
# 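Note: peptides expressed intracellularly from a pBAD plasmid library in pooled LB shake-flask culture, induced with 0.3% L-arabinose, DNA abundance read by NGS, three biological replicates, DESeq2 with apeglm shrinkage.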
row,Sequence,shrunken log2 fold change
1,RRIRYRPPRLPRPRPRPFYTPRP,-1.19
2,RRIRGRPPRLPRPRPRPSDNPRP,-0.165
3,RRIRGRPPRLPRPRPRPGRWPRP,0.716
4,RRIRRRPPRLPRPRPRPSTQPRP,-0.245
5,RRIRFRPPRLPRPRPRPADQPRP,-0.144
6,RRIRHRPPRLPRPRPRPDIQPRP,-0.0379
7,RRIRDRPPRLPRPRPRPIEIPRP,-0.298
8,RRIRPRPPRLPRPRPRPVSGPRP,0.584
9,RRIRVRPPRLPRPRPRPTDEPRP,-0.148
10,RRIRLRPPRLPRPRPRPHGKPRP,-0.191
11,RRIRARPPRLPRPRPRPRIMPRP,0.121
12,RRIRRRPPRLPRPRPRPAHGPRP,0.279
13,RRIRTRPPRLPRPRPRPILEPRP,-0.0122
14,RRIRSRPPRLPRPRPRPQMRPRP,0.691
15,RRIRLRPPRLPRPRPRPEVDPRP,-0.0786
16,RRIRPRPPRLPRPRPRPARPPRP,0.626
17,RRIRTRPPRLPRPRPRPTGKPRP,-0.108
18,RRIRPRPPRLPRPRPRPKVLPRP,0.038
19,RRIRSRPPRLPRPRPRPVTRPRP,-0.538
20,RRIRIRPPRLPRPRPRPVHEPRP,-0.139
21,RRIRYRPPRLPRPRPRPGLKPRP,-0.0239
22,RRIRCRPPRLPRPRPRPRKDPRP,-0.0271
23,RRIRFRPPRLPRPRPRPKYMPRP,-0.836
24,RRIRLRPPRLPRPRPRPKPFPRP,2.21
25,RRIRYRPPRLPRPRPRPIWGPRP,-0.0267

row,Sequence,shrunken log2 fold change
1,RRIRYRPPRLPRPRPRPANAPRP,0.00281
2,RRIRMRPPRLPRPRPRPEDNPRP,0.0325
3,RRIRWRPPRLPRPRPRPNHDPRP,-0.193
4,RRIRNRPPRLPRPRPRPEPDPRP,0.0698
5,RRIRSRPPRLPRPRPRPAFTPRP,-0.0573
6,RRIRTRPPRLPRPRPRPRFMPRP,-0.265
7,RRIRVRPPRLPRPRPRPGCGPRP,0.679
8,RRIRVRPPRLPRPRPRPNNDPRP,-0.335
9,RRIRFRPPRLPRPRPRPYEAPRP,-0.493
10,RRIRPRPPRLPRPRPRPKNLPRP,-0.0674
11,RRIRNRPPRLPRPRPRPPEDPRP,0.174
12,RRIRTRPPRLPRPRPRPHSTPRP,-0.374
13,RRIRYRPPRLPRPRPRPTFQPRP,-0.0033
14,RRIRIRPPRLPRPRPRPCGAPRP,-0.25
15,RRIRRRPPRLPRPRPRPCPLPRP,0.262
16,RRIRIRPPRLPRPRPRPERNPRP,0.146
17,RRIRYRPPRLPRPRPRPFYKPRP,-0.00388
18,RRIRWRPPRLPRPRPRPKTFPRP,-0.0777
19,RRIRERPPRLPRPRPRPLQMPRP,-0.0246
20,RRIRQRPPRLPRPRPRPTGTPRP,0.285
21,RRIRYRPPRLPRPRPRPFCDPRP,-0.208
22,RRIRMRPPRLPRPRPRPWRYPRP,0.166
23,RRIRERPPRLPRPRPRPEVMPRP,0.378
24,RRIRMRPPRLPRPRPRPSGLPRP,0.0901
25,RRIRERPPRLPRPRPRPWNTPRP,-0.00122

row,Sequence,shrunken log2 fold change
1,RRIRCRPPRLPRPRPRPMSSPRP,0.0481
2,RRIRGRPPRLPRPRPRPYDSPRP,0.0118
3,RRIRGRPPRLPRPRPRPRMHPRP,0.997
4,RRIRPRPPRLPRPRPRPMPVPRP,0.0347
5,RRIRPRPPRLPRPRPRPKETPRP,0.0101
6,RRIRIRPPRLPRPRPRPGVTPRP,-0.0211
7,RRIRSRPPRLPRPRPRPREPPRP,0.284
8,RRIRYRPPRLPRPRPRPGCKPRP,-0.0843
9,RRIRWRPPRLPRPRPRPLARPRP,0.432
10,RRIRERPPRLPRPRPRPRLEPRP,-0.0353
11,RRIRFRPPRLPRPRPRPEFRPRP,-0.0593
12,RRIRLRPPRLPRPRPRPRPVPRP,0.637
13,RRIRSRPPRLPRPRPRPREFPRP,0.322
14,RRIRVRPPRLPRPRPRPTDHPRP,0.00915
15,RRIRDRPPRLPRPRPRPRIHPRP,-0.563
16,RRIRGRPPRLPRPRPRPPWEPRP,0.528
17,RRIRKRPPRLPRPRPRPDNGPRP,-0.0558
18,RRIRERPPRLPRPRPRPPYCPRP,-0.275
19,RRIRCRPPRLPRPRPRPSYVPRP,-0.786
20,RRIRARPPRLPRPRPRPPDIPRP,0.289
21,RRIRIRPPRLPRPRPRPHAWPRP,0.0947
22,RRIRMRPPRLPRPRPRPIWWPRP,0.124
23,RRIRKRPPRLPRPRPRPTVSPRP,0.099
24,RRIRNRPPRLPRPRPRPINFPRP,-0.27
25,RRIRQRPPRLPRPRPRPIPRPRP,0.145

row,Sequence,shrunken log2 fold change
1,RRIRHRPPRLPRPRPRPIAGPRP,0.0113
2,RRIRTRPPRLPRPRPRPNASPRP,-0.0378
3,RRIRARPPRLPRPRPRPCCNPRP,0.278
4,RRIRCRPPRLPRPRPRPYCCPRP,-0.135
5,RRIRYRPPRLPRPRPRPSCSPRP,-0.972
6,RRIRYRPPRLPRPRPRPMMDPRP,-0.103
7,RRIRQRPPRLPRPRPRPYYMPRP,-0.614
8,RRIRCRPPRLPRPRPRPRWGPRP,0.495
9,RRIRMRPPRLPRPRPRPIGWPRP,0.599
10,RRIRDRPPRLPRPRPRPRDLPRP,0.139
11,RRIRGRPPRLPRPRPRPCRQPRP,0.436
12,RRIRDRPPRLPRPRPRPHPHPRP,-0.0722
13,RRIRHRPPRLPRPRPRPTGFPRP,0.0428
14,RRIRDRPPRLPRPRPRPRECPRP,0.0105
15,RRIRARPPRLPRPRPRPAMRPRP,0.825
16,RRIRSRPPRLPRPRPRPCTTPRP,-0.135
17,RRIRTRPPRLPRPRPRPIWSPRP,0.0914
18,RRIRQRPPRLPRPRPRPSCGPRP,0.117
19,RRIRERPPRLPRPRPRPFYFPRP,0.935
20,RRIRNRPPRLPRPRPRPYNWPRP,-0.161
21,RRIRPRPPRLPRPRPRPILGPRP,-0.148
22,RRIRQRPPRLPRPRPRPCEPPRP,-0.0332
23,RRIRVRPPRLPRPRPRPQAFPRP,0.0753
24,RRIRARPPRLPRPRPRPICKPRP,-0.159
25,RRIRMRPPRLPRPRPRPQHAPRP,0.0286

row,Sequence,shrunken log2 fold change
1,RRIRWRPPRLPRPRPRPWFSPRP,0.0565
2,RRIRFRPPRLPRPRPRPFWHPRP,0.041
3,RRIRMRPPRLPRPRPRPSFWPRP,0.459
4,RRIRNRPPRLPRPRPRPYYYPRP,-0.0857
5,RRIRYRPPRLPRPRPRPNKDPRP,-1.01
6,RRIRARPPRLPRPRPRPGMLPRP,0.334
7,RRIRKRPPRLPRPRPRPYCNPRP,0.068
8,RRIRWRPPRLPRPRPRPPNHPRP,0.0941
9,RRIRRRPPRLPRPRPRPEHLPRP,0.242
10,RRIRWRPPRLPRPRPRPAWTPRP,0.428
11,RRIRMRPPRLPRPRPRPVRFPRP,0.725
12,RRIRIRPPRLPRPRPRPSIGPRP,-0.333
13,RRIRKRPPRLPRPRPRPIQHPRP,-0.311
14,RRIRWRPPRLPRPRPRPNKVPRP,-0.129
15,RRIRHRPPRLPRPRPRPFDQPRP,-0.0783
16,RRIRLRPPRLPRPRPRPFNGPRP,-0.0434
17,RRIRTRPPRLPRPRPRPLPLPRP,-0.107
18,RRIRVRPPRLPRPRPRPEISPRP,-0.122
19,RRIRIRPPRLPRPRPRPGFYPRP,0.054
20,RRIRARPPRLPRPRPRPPQIPRP,0.599
21,RRIRIRPPRLPRPRPRPTAIPRP,-0.574
22,RRIRTRPPRLPRPRPRPFWPPRP,0.178
23,RRIRIRPPRLPRPRPRPMGGPRP,0.38
24,RRIRVRPPRLPRPRPRPRLQPRP,-0.000502
25,RRIRTRPPRLPRPRPRPYAYPRP,-0.0309

row,Sequence,shrunken log2 fold change
1,RRIRSRPPRLPRPRPRPECKPRP,0.275
2,RRIRHRPPRLPRPRPRPKFTPRP,-0.219
3,RRIRFRPPRLPRPRPRPPHKPRP,-0.027
4,RRIRPRPPRLPRPRPRPCVCPRP,0.0289
5,RRIRKRPPRLPRPRPRPLHTPRP,-0.368
6,RRIRVRPPRLPRPRPRPHHMPRP,-0.26
7,RRIRTRPPRLPRPRPRPWKPPRP,0.0143
8,RRIRKRPPRLPRPRPRPCCIPRP,0.243
9,RRIRLRPPRLPRPRPRPCQTPRP,-0.0348
10,RRIRIRPPRLPRPRPRPPLEPRP,-0.272
11,RRIRFRPPRLPRPRPRPFLGPRP,0.0749
12,RRIRWRPPRLPRPRPRPKNRPRP,0.017
13,RRIRQRPPRLPRPRPRPQTHPRP,-0.293
14,RRIRLRPPRLPRPRPRPECNPRP,-0.0178
15,RRIRARPPRLPRPRPRPGELPRP,0.333
16,RRIRRRPPRLPRPRPRPYWCPRP,-0.0451
17,RRIRTRPPRLPRPRPRPHQHPRP,-0.415
18,RRIRARPPRLPRPRPRPQNMPRP,-0.497
19,RRIRFRPPRLPRPRPRPFLVPRP,-0.426
20,RRIRTRPPRLPRPRPRPAIFPRP,-0.0366
21,RRIRCRPPRLPRPRPRPDNLPRP,-0.595
22,RRIRDRPPRLPRPRPRPQKPPRP,-0.00349
23,RRIRHRPPRLPRPRPRPQYMPRP,-0.252
24,RRIRVRPPRLPRPRPRPKEIPRP,0.104
25,RRIRPRPPRLPRPRPRPDYAPRP,0.0585
